Patent publication US11135223B2, “Compositions and methods for inhibiting Dkk-1” (YALE UNIVERSITY, priority 2016, dated 2021)

System: CD4 T cells
Experiment: CD4 T cell activation and differentiation in vitro with Dkk-1 or Wnt3a
Type: cell-based, mice
Text: FIG. 5, comprising FIG. 5A through FIG. 5E, depicts results of experiments showing Dkk-1 induces TH2 cell polarization. FIG. 5A depicts lungs harvested for immunohistochemistry of CD3 (dark brown), CD41 (blue) and isotype control antibodies of lungs from Dkk-1^d/d mice and their wildtype littermate controls challenged with HDM extract allergen. Orange arrowheads in the images indicate co-localized CD3 T cells with CD41^+ platelets. FIG. 5B depicts ELISA analysis of Dkk-1 from plasma samples from Dkk-1^d/d mice (n=5) collected 24 hours after challenge with 50 μg HDM. FIG. 5C depicts ELISA analysis of splenic CD4 T cells from 6-8 week-old C57BL/6 mice were activated with anti-CD3 and anti-CD28 antibodies (Act) with or without Dkk-1 (30 ng/ml unless indicated) for 4 days. FIG. 5D depicts flow cytometry analysis of splenic CD4 T cells from 6-8 week-old C57BL/6 mice were activated with anti-CD3 and anti-CD28 antibodies (Act) with or without Dkk-1 (30 ng/ml unless indicated) for 4 days. FIG. 5E depicts ELISA analysis of naïve CD4 T cells stimulated anti-CD3 and anti-CD28 antibodies for 96 hr with or without Dkk-1.
FIG. 6, comprising FIG. 6A through FIG. 6E, depicts results of experiments showing Dkk-1 induces TH2 cytokines in various T cell differentiation conditions. FIG. 6A depicts flow cytometry and ELISA analysis of naïve CD4 T cells were stimulated under TH1 polarization conditions for 96 hours with or without Dkk-1. FIG. 6B depicts flow cytometry and ELISA analysis of naïve CD4 T cells were stimulated under TH2 polarization conditions for 96 hours with or without Dkk-1. FIG. 6C depicts flow cytometry analysis of Foxp3, IL-17A, and IL-10 expression in splenic naïve CD4 T cells isolated and differentiated into iTreg for 5 days with 100 U/ml IL-2 and 1.5 ng/ml TGF-β with or without 30 ng/ml and 3 ng/ml of Dkk-1 treated during the culture. FIG. 6D depicts Gata-3 expression levels of splenic naïve CD4 T cells from 8 week-old C57BL/6 mice treated with Dkk-1 with varying doses of Dkk-1 (50, 30, 7.5 ng/ml) or Wnt3a (20% v/v) for 96 hours in the presence of anti-CD3 and anti-CD28 antibody stimulation. FIG. 6E depicts qPCR results of Tcf7 and Lef1 mRNA harvested from splenic naïve CD4 T cells from 8 week-old C57BL/6 mice stimulated with or without Dkk-1 (30 ng/ml) for 96 hours. All results were statistically non-significant. All experiments are a representative of two to three independent experiments. Student's t-test or one way-ANOVA analysis with Bonferonni's post-hoc test were performed. Small horizontal lines and error bars indicate the mean (±s.e.m.). ***, p<0.0001, **, p<0.005, *, p<0.05.
FIG. 8, comprising FIG. 8A through FIG. 8G, depicts results of experiments showing Dkk-1 induces IL-10 in CD4 T cells via SGK-1 and p38 MAPK. FIG. 8A depicts ELISA analysis of naïve CD4 T cell differentiated into TH2 cells with or without Dkk-1 (30 ng/ml), SGK-1 inhibitor (2 μM) or p38 inhibitor (10 μM) for 96 hours. FIG. 8B depicts flow cytometry analysis of human naïve CD4 T cells (CD4^+CD25^−CD45RA^+) transduced with SGK-1 shRNA and selected with puromycin (0.5 μg/ml) for 48 hours. The selected cells were stimulated with anti-CD3 mAb (OKT3) and anti-CD28 mAb with or without Dkk-1 for 96 hr. For the last 5 hr of culture, stimulation cocktail (PMA/Ionomycin/Brefeldin A/Monensin) was added. FIG. 8C depicts intracellular staining with antibodies recognizing phospho-S6 kinase of splenic CD4^+CD25^− cells from 6 week-old C57BL/6 mice were isolated and activated with anti-CD3 and anti-CD28 mAb (2 μg/ml) with or without Dkk-1 (25 ng/ml) for indicated time points. FIG. 8D depicts intracellular staining with antibodies recognizing phospho-4E-BP1 of splenic CD4^+CD25^− cells from 6 week-old C57BL/6 mice were isolated and activated with anti-CD3 and anti-CD28 mAb (2 μg/ml) with or without Dkk-1 (25 ng/ml) for indicated time points. […]

B1: Dkk-1: Wnt antagonist Dickkopf-1 protein, expressed in CHO cells, added to cells or injected into mice (protein, UniProt O94907 32-266, looked up)
Dickkopf-related protein 1: TLNSVLNSNAIKNLPPPLGGAAGHPGSAVSAAPGILYPGGNKYQTIDNYQPYPCAEDEECGTDEYCASPTRGGDAGVQICLACRKRRKRCMRHAMCCPGNYCKNGICVSSDQNHFRGEIEETITESFGNDHSTLDGYSRRTTLSSKMYHTKGQEGSVCLRSSDCASGLCCARHFWSKICKPVLKEGQVCTKHRRKGSHGLEIFQRCYCGEGLSCRIQKDHHQASNSSRLHTCQRH
TH1 and TH17-associated cytokines (IFN-γ, IL-17A and IL-17F) (CD4 T cell activation in vitro): not induced
IFN-γ expression (TH1 polarization conditions, 96 hours): suppressed
IL-4 expression (TH2 cell differentiation, dose-dependent): enhanced
TGF-β-mediated Foxp3 expression (iTreg differentiation with IL-2 and TGF-β, 5 days): inhibiting
Gata-3+ and c-Maf+ CD4 T cell population (in vitro, Dkk-1 30 ng/ml): increased
amount of Dkk-1 that could induce Gata-3 expression (naïve CD4 T cells, 96 hours, similar to Wnt3a): up to 30 ng/ml
TCF-1 or Lef expression (naïve CD4 T cells, Dkk-1 30 ng/ml, 96 hours, qPCR): did not induce
levels of Dkk-1 that inhibited Gata-3 expression (naïve CD4 T cells, non-physiologic high levels): > 50 ng/mL
phosphorylation of S6 kinase or 4E-BP-1 (splenic CD4+CD25- cells, Dkk-1 25 ng/ml): not altered
IL-4, IL-10 and IL-13 (total CD4 T cell activation in vitro, Dkk-1 30 ng/ml, 4 days): induced
